Earlier results on one substance are cited in publication PMC10631023.

Where “and” joins values, the source holds several entries; their conditions need not be identical. Identical values can stand only once.

For orientation: Kd means a measure of binding affinity in units of concentration.

The target of series [1] is VSIG-3 (Homo sapiens) (UniProt Q5DX21).
The target of series [2] is PSGL-1 (Homo sapiens) (UniProt Q14242).
Sequence of UniProt Q14242 (Q14242 42-320): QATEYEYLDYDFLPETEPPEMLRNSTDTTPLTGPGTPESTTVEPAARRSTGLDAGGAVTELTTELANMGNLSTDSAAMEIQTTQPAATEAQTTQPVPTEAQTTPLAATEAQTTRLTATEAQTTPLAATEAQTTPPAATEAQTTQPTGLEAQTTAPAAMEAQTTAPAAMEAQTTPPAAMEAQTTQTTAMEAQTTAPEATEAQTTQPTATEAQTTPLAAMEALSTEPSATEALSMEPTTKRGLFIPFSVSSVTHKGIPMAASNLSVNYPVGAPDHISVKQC

Sequence of UniProt Q5DX21 (Q5DX21 23-241): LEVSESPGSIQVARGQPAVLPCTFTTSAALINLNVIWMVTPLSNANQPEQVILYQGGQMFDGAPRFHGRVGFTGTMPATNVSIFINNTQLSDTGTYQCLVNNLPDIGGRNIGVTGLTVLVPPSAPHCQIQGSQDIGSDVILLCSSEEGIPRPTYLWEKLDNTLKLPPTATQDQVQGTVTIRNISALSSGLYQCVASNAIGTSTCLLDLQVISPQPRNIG

On to VISTA (from UniProt Q9H7M9), for which the Kd is 20 nM and 80 nM in series [1]; 4 nM in series [2].
